The text below walks through data of patent publication US7902156B2 (Angiochem Inc., priority 2005, dated 2011).

No end group written: not given here.

The test system of one data set is brain tumor model. The conditions noted are these: injected alone at the maximal tolerated dose (54 mg/kg); cited from earlier work.
For data set [1], the system named is in vitro model of the BBB (bovine brain capillary endothelial cells). In words: Second level screening: [125I]-peptide passage in the in vitro BBB model (cpm ratios). The method, then: This BBCEC medium was changed three times a week.
The medium was changed twice a week.
Briefly, the selected peptides were iodinated with standard procedures using iodo-beads from Sigma. Two iodo-beads were used for each protein. […] The iodination for each peptide was initiated by adding 100 μg (80-100 μl) of the bead suspension. […] Fractions of 0.5 ml were collected and the radioactivity in 5 μl of each fraction was measured.
The iodinated peptides were also investigated with the in vitro model of the BBB. […] Results were expressed as cpm ratios.

The subject of data set [2] is in vitro BBB model (BBCEC monolayers grown on filters in the presence of astrocytes). Briefly: Permeability coefficient (Pe) / transcytosis capacity in the in vitro BBB model. It is filed as in vitro ADME, bovine. The conditions noted are these: third level of selection, peptide at 250 nM. The method, then: At different times, inserts were placed into another well.
Transcytosis capacity of Aprotinin-Paclitaxel conjugate was determined and is reported below in Table 5.

The test system of the next data set is mouse brain. Briefly: In situ cerebral perfusion with post-perfusion capillary depletion. It is filed as in vivo, mice. The settings on record: perfusion 5 min. The text has this: The in situ cerebral perfusion (in mice) was used as the fourth level of selection to select the best peptides. This procedure also distinguishes between compounds remaining in the brain vascular compartment from those having crossed the abluminal endothelial membrane to enter the brain parenchyma. Indeed, the technique of post-perfusion capillary depletion allows to measure whether the molecule really crosses the endothelium to enter the brain parenchyma.

Data set [3] has as its system in vitro model of the BBB (co-culture of bovine brain capillary endothelial cells and rat glial cells). In words: First level screening: peptide passage in the in vitro BBB model, Coomassie blue detection. The conditions noted are these: 90 minutes at 37° C.
Source text: An in vitro model was used for screening assay and for mechanistic studies of drug transport to the brain. […] The model consists of a co-culture of bovine brain capillary endothelial cells and rat glial cells. It presents ultrastructural features characteristic of brain endothelium including tight junctions, lack of fenestration, lack of transendothelial channels, low permeability for hydrophilic molecules and a high electrical resistance.
The in vitro model of BBB was established by using a co-culture of BBCECs and astrocytes. Prior to cell culture, plate inserts (Millicell-PC 3.0 μM; 30-mm diameter) were coated on the upper side with rat tail collagen. They were then set in six-well microplates containing the astrocytes and BBCECs were plated on the upper side of the filters in 2 mL of co-culture medium. This BBCEC medium was changed three times a week. Under these conditions, differentiated BBCECs formed a confluent monolayer 7 days later. Experiments were performed between 5 and 7 days after confluence was reached. The permeability coefficient for sucrose was measured to verify the endothelial permeability.
Briefly, after removing the meninges, the brain tissue was forced gently through an 82 μm nylon sieve. Astrocytes were plated on six-well microplates at a concentration of 1.2×10^5 cells/mL in 2 mL of optimal culture medium (DMEM) supplemented with 10% heat inactivated fetal bovine serum. The medium was changed twice a week.
Bovine brain capillary endothelial cells (BBCECs) were obtained from Cellial Technologies. The cells were cultured in the presence of DMEM medium supplemented with 10% (v/v) horse serum and 10% heat-inactivated calf serum, 2 mM of glutamine, 50 μg/mL of gentamycin, and 1 ng/mL of basic fibroblast growth factor, added every other day.
Each peptide was added to the upper side of the inserts covered or non-covered with endothelial cells for 90 minutes at 37° C. […] After 90 minutes of transcytosis, a volume of 50 μl from the basolateral side of the filters covered with endothelial cells (+) or non-covered (−) was also loaded on Tricine gels. To visualize the peptides gels were stained with Coomassie blue.

As to `CC(=O)O[C@H]1C(=O)[C@@]2(C)[C@H]([C@H](OC(=O)c3ccccc3)[C@]3(O)C[C@H](OC(=O)[C@H](O)[C@@H](NC(=O)c4ccccc4)c4ccccc4)C(C)=C1C3(C)C)[C@]1(OC(C)=O)CO[C@@H]1C[C@@H]2O` [paclitaxel], the Mouse survival entry in the data set on brain tumor model is reported as “unable to increase mouse survival”.

In the case of “T F F Y G G C R G K R N N F K T K E Y (TFFYGGCRGKRNNFKTKEY-NH2) [Peptide 76]”, in data set [1], the “Ratio +cells/initial” value is 0.084 and the “Ratio −cells/initial” value is given as 0.222. Moreover, the “Permeability coefficient (Pe)” value in data set [2] is listed as “highest Pe”. Further, the “Volume of distribution, Capillaries” value in the data set on mouse brain is reported as 16 ml/100 g. Besides, the “Volume of distribution, Capillaries %” value in the data set on mouse brain (share of homogenate) is recorded as 40%. Further, the “Volume of distribution, Homogenate” value in the data set on mouse brain (total brain) is given as 40 ml/100 g. Further, in data set [3], the “Peptide detected in the lower side of the chambers by Coomassie blue staining” value is reported as “detected in the lower side of the chambers”.
